# Assay results: patent US20240417437A1, “Linker Polypeptides” (Trutino Biosciences Inc., priority 2021, published 2024)
# Numbering of substitutions follows the chain as printed. Names may count otherwise.
# B1: Construct NN: mIL2-2x(SG4)-MMPcs1-2x(GHHPH)-mIL2Ra(1-215)-muIgG1Fc; pH heparin (protein)
# chain: APTSSSTSSSTAEAQQQQQQQQQQQQHLEQLLMDLQELLSRMENYRNLKLPRMLTFKFYLPKQATELKDLQCLEDELGPLRHVLDLTQSKSFQLEDAENFISNIRVTVVKLKGSDNTFECQFDDESATVVDFLRRWIAFCQSIISTSPQSGGGGSGGGGGPLGVRGGHHPHGHHPHELCLYDPPEVPNATFKALSYKNGTILNCECKRGFRRLKELVYMRCLGNSWSSNCQCTSNSHDKSRKQVTAQLEHQKEQQTTTDMQKPTQSMHQENLTGHCREPPPWKHEDSKRIYHFVEGQSVHYECIPGYKALQRGPAISICKMKCGKTGWTQPQLTCVDEREHHRFLASEESQGSRNSSPESETSCPITTTDFPQPTETTAMTETFVLTMEYKGCKPCICTVPEVSSVFIFPPKPKDVLTITLTPKVTCVVVDISKDDPEVQFSWFVDDVEVHTAQTQPREEQFNSTFRSVSELPIMHQDWLNGKEFKCRVNSAAFPAPIEKTISKTKGRPKAPQVYTIPPPKEQMAKDKVSLTCMITDFFPEDITVEWQWNGQPAENYKNTQPIMDTDGSYFVYSKLNVQKSNWEAGNTFTCSVLHEGLHNHHTEKSLSHSPGK
# modifications: Synthetic: Construct NN
# notes: mIL2-2x(SG4)-MMPcs1-2x(GHHPH)-mIL2Ra(1-215)-muIgG1Fc; pH heparin
# B2: Construct Y: mIL2(C140S)-VRIQRKKEKMKET-MMPcs1-2x(G4S)-mIL2Ra(1-215)-muIgG1Fc; heparin (protein)
# chain: APTSSSTSSSTAEAQQQQQQQQQQQQHLEQLLMDLQELLSRMENYRNLKLPRMLTFKFYLPKQATELKDLQCLEDELGPLRHVLDLTQSKSFQLEDAENFISNIRVTVVKLKGSDNTFECQFDDESATVVDFLRRWIAFSQSIISTSPQVRIQRKKEKMKETGPLGVRGGGGGSGGGGSELCLYDPPEVPNATFKALSYKNGTILNCECKRGFRRLKELVYMRCLGNSWSSNCQCTSNSHDKSRKQVTAQLEHQKEQQTTTDMQKPTQSMHQENLTGHCREPPPWKHEDSKRIYHFVEGQSVHYECIPGYKALQRGPAISICKMKCGKTGWTQPQLTCVDEREHHRFLASEESQGSRNSSPESETSCPITTTDFPQPTETTAMTETFVLTMEYKIEGRMDGCKPCICTVPEVSSVFIFPPKPKDVLTITLTPKVTCVVVDISKDDPEVQFSWFVDDVEVHTAQTQPREEQFNSTFRSVSELPIMHQDWLNGKEFKCRVNSAAFPAPIEKTISKTKGRPKAPQVYTIPPPKEQMAKDKVSLTCMITDFFPEDITVEWQWNGQPAENYKNTQPIMDTDGSYFVYSKLNVQKSNWEAGNTFTCSVLHEGLHNHHTEKSLSHSPGK
# modifications: Synthetic: Construct Y
# notes: mIL2(C140S)-…-MMPcs1-2x(G4S)-mIL2Ra(1-215)-muIgG1Fc; heparin
# B3: Construct CC: mIL2-2x(GHHPH)-MMPcs1-2x(G4S)-mIL2Ra(1-215)-muIgG1Fc; pH heparin (protein)
# chain: APTSSSTSSSTAEAQQQQQQQQQQQQHLEQLLMDLQELLSRMENYRNLKLPRMLTFKFYLPKQATELKDLQCLEDELGPLRHVLDLTQSKSFQLEDAENFISNIRVTVVKLKGSDNTFECQFDDESATVVDFLRRWIAFCQSIISTSPQGHHPHGHHPHGPLGVRGGGGGSGGGGSELCLYDPPEVPNATFKALSYKNGTILNCECKRGFRRLKELVYMRCLGNSWSSNCQCTSNSHDKSRKQVTAQLEHQKEQQTTTDMQKPTQSMHQENLTGHCREPPPWKHEDSKRIYHFVEGQSVHYECIPGYKALQRGPAISICKMKCGKTGWTQPQLTCVDEREHHRFLASEESQGSRNSSPESETSCPITTTDFPQPTETTAMTETFVLTMEYKGCKPCICTVPEVSSVFIFPPKPKDVLTITLTPKVTCVVVDISKDDPEVQFSWFVDDVEVHTAQTQPREEQFNSTFRSVSELPIMHQDWLNGKEFKCRVNSAAFPAPIEKTISKTKGRPKAPQVYTIPPPKEQMAKDKVSLTCMITDFFPEDITVEWQWNGQPAENYKNTQPIMDTDGSYFVYSKLNVQKSNWEAGNTFTCSVLHEGLHNHHTEKSLSHSPGK
# modifications: Synthetic: Construct CC
# notes: mIL2-2x(GHHPH)-MMPcs1-2x(G4S)-mIL2Ra(1-215)-muIgG1Fc; pH heparin
# B4: Construct B: mIL2-2x(SG4)-MMPcs1-2x(G4S)-mIL2Ralpha(1-215)-mIgG1Fc; no TME (protein)
# chain: B1 chain with H168G, H169G, P170G, H171S, H173G, H174G, P175G, H176S
# modifications: Synthetic: Construct B polypeptide sequence: m IL2-2x(SG4) MMPcs1 2x (G4S) IL2Ralpha mIgG1 Fc
# notes: mIL2-2x(SG4)-MMPcs1-2x(G4S)-mIL2Ralpha(1-215)-mIgG1Fc; no TME
# B5: Construct EE: mIL2-SGG-GGWSHW-MMPcs1-2x(G4S)-mIL2Ra(1-215)-muIgG1Fc; pH fibronectin (protein)
# chain: APTSSSTSSSTAEAQQQQQQQQQQQQHLEQLLMDLQELLSRMENYRNLKLPRMLTFKFYLPKQATELKDLQCLEDELGPLRHVLDLTQSKSFQLEDAENFISNIRVTVVKLKGSDNTFECQFDDESATVVDFLRRWIAFCQSIISTSPQSGGGGWSHWGPLGVRGGGGGSGGGGSELCLYDPPEVPNATFKALSYKNGTILNCECKRGFRRLKELVYMRCLGNSWSSNCQCTSNSHDKSRKQVTAQLEHQKEQQTTTDMQKPTQSMHQENLTGHCREPPPWKHEDSKRIYHFVEGQSVHYECIPGYKALQRGPAISICKMKCGKTGWTQPQLTCVDEREHHRFLASEESQGSRNSSPESETSCPITTTDFPQPTETTAMTETFVLTMEYKGCKPCICTVPEVSSVFIFPPKPKDVLTITLTPKVTCVVVDISKDDPEVQFSWFVDDVEVHTAQTQPREEQFNSTFRSVSELPIMHQDWLNGKEFKCRVNSAAFPAPIEKTISKTKGRPKAPQVYTIPPPKEQMAKDKVSLTCMITDFFPEDITVEWQWNGQPAENYKNTQPIMDTDGSYFVYSKLNVQKSNWEAGNTFTCSVLHEGLHNHHTEKSLSHSPGK
# modifications: Synthetic: Construct EE
# notes: mIL2-SGG-GGWSHW-MMPcs1-2x(G4S)-mIL2Ra(1-215)-muIgG1Fc; pH fibronectin
# B6: Construct GG: mIL2-SGG-KLWVLPK-MMPcs1-2x(G4S)-mIL2Ra(1-215)-muIgG1Fc; collagen IV (protein)
# chain: B3 chain with G150S, H151G, H152G, P153K, H154L, G155W, H156V, H157L, H159K
# modifications: Synthetic: Construct GG
# notes: mIL2-SGG-KLWVLPK-MMPcs1-2x(G4S)-mIL2Ra(1-215)-muIgG1Fc; collagen IV
# B7: Construct II: mIL2-LHERHLNNN-MMPcs1-2x(G4S)-mIL2Ra(1-215)-muIgG1Fc; collagen I (protein)
# chain: B3 chain with G150S, H151L, P153E, H154R, G155H, H156L, H157N, P158N, H159N
# modifications: Synthetic: Construct II
# notes: mIL2-…-MMPcs1-2x(G4S)-mIL2Ra(1-215)-muIgG1Fc; collagen I
# Tests used:
# [1] = assay type: binding; details: for fusion protein binding to heparin: pH 6
# Method: 96-well plates were coated with 10 μg/mL of Heparin-BSA conjugate (provided by Dr. Mueller, Boerhinger Ingelheim) or control BSA for 18-22 hours at room temperature on shaker (350 rpm). After washing, wells are blocked with 2% milk powder in PBS-0.05% Tween 20 or PBS-0.05% Tween 20/1% BSA for 90 minutes. The fusion proteins were then titrated in either 2% milk powder in PBS-0.05% Tween 20 or 1% BSA/PBS-0.05% Tween 20, pH 7.5 and/or pH 6, and added for 2 hours at room temperature with shaking. After washing, an anti-mouse IL-2 biotin-labelled detection antibody (JES6-5H4, ThermoFisher), anti-6×-His Tag HRP conjugate antibody (Invitrogen, 1 mg/mL, cat #MA1-21315-HRP), or anti-human IgG HRP conjugate antibody (SouthernBiotech) was added, and binding was detected using Ultra Streptavidin HRP (ThermoFisher). The plate was developed by adding the chromogenic tetramethylbenzidine substrate (Ultra TMB, ThermoFisher). The reaction was stopped by addition of 0.5 M H2SO4, and the absorbance was read at 450-650 nm. […] Moreover, when the same pH-dependent heparin binding motif was inserted into different locations of IL-2 fusion proteins, all resulting proteins bound heparin at pH 6 with similar high affinities (FIGS. 4F and 4G). Likewise, similar binding affinities were observed when another heparin targeting sequence was engineered into different sites of IL-2 fusion proteins (FIGS. 4H-4I). […] The heparin binding activity is recovered when a heparin binding motif is engineered into the linker polypeptide-IL-15 fusion protein (Construct WWW). Finally, linker polypeptide-IL-2 fusion proteins engineered with a heparin binding site show about 30-fold enhanced binding to heparin in vitro compared to constructs lacking a heparin binding site (Construct EEE and Construct NNNN vs. Construct AAA and Construct NNN, respectively) as shown in FIG. 4M.
# fibronectin = fibronectin (Homo sapiens, UniProt P02751); assay: Fusion protein plate binding assay on fibronectin
# Chain of fibronectin (P02751 32-2477, species assumed): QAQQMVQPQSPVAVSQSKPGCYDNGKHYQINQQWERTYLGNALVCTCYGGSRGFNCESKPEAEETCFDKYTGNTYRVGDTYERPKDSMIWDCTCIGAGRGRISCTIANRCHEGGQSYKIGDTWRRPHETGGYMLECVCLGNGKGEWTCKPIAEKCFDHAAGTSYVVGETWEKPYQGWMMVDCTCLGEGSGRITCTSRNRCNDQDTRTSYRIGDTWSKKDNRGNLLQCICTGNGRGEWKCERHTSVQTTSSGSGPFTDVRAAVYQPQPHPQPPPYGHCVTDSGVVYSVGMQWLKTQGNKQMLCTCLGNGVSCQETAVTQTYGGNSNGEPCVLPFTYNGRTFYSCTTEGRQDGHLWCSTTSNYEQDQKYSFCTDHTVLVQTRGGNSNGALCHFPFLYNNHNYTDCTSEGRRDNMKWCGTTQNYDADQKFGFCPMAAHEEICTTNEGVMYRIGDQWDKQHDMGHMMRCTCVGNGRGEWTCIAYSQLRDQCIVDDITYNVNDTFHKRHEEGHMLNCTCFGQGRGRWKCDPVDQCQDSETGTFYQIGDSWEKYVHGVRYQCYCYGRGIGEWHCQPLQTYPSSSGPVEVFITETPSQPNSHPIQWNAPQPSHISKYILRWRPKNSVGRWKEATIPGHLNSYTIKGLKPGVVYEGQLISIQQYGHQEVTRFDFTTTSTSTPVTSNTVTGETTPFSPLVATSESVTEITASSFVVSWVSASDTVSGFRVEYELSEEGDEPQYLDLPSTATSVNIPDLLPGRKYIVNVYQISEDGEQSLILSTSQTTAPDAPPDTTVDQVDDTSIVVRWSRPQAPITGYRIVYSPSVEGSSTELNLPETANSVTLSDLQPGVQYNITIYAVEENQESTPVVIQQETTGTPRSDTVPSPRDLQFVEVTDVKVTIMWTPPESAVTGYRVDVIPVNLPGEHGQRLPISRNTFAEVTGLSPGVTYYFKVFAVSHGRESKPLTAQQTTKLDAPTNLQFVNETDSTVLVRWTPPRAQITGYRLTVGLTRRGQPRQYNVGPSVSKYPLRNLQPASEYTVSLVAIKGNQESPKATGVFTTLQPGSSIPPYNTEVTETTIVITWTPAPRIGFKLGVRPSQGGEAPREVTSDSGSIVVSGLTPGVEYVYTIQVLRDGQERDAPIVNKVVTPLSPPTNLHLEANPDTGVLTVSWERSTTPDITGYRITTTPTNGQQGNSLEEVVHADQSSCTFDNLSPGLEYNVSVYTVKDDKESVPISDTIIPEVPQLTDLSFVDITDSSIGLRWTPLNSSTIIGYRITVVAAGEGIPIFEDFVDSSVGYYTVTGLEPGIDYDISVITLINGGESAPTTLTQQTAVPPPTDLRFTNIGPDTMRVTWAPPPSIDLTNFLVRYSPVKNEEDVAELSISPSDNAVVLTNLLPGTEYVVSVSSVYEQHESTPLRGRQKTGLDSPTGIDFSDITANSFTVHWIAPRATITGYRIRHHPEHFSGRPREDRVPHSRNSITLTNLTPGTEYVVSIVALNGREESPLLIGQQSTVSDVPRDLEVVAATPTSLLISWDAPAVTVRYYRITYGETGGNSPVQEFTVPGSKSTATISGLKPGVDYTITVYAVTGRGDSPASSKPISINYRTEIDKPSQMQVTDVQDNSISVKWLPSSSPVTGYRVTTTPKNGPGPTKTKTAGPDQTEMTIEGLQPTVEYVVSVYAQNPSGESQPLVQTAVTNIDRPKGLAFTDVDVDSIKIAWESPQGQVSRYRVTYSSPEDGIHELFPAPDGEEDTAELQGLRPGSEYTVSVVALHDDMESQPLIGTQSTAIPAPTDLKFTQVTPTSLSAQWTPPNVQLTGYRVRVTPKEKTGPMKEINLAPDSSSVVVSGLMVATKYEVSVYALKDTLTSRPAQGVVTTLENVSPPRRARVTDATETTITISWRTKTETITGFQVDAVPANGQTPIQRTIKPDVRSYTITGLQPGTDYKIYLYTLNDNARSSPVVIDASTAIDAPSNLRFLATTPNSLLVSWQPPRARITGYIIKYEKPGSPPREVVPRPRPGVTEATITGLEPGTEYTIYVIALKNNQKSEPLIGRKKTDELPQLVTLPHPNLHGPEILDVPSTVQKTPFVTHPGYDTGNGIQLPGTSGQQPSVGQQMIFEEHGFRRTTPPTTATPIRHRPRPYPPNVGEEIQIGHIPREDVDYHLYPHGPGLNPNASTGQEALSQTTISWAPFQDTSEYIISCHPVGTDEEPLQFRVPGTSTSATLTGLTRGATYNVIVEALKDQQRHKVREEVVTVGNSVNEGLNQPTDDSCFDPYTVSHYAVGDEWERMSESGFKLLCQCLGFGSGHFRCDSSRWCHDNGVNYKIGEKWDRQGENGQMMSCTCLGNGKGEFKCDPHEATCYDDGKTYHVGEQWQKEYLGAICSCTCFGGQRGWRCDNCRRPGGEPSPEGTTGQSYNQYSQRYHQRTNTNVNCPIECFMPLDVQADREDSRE
# Method: A similar plate-based assay was developed to interrogate binding of IL-2 fusion variants to fibronectin. 96-well plates were coated with fibronectin (4-10 μg/mL, Sigma) or control BSA for 18-22 hours at room temperature on shaker (350 rpm). After washing, wells were blocked with 2% milk powder in PBS-0.05% Tween 20 or protein-free blocking buffer (Pierce) for 90 min, then fusion proteins were titrated in blocking buffer-0.1% Tween 20, pH 7.5 and/or pH 6, and added for 1 hour at room temperature with shaking. After washing, an anti-mouse IL-2 biotin-labelled detection antibody (JES6-5H4, ThermoFisher) or anti-human IgG HRP conjugate antibody (SouthernBiotech) was added, and binding was detected using Ultra Streptavidin HRP (ThermoFisher). The plate was developed by adding the chromogenic tetramethylbenzidine substrate (Ultra TMB, ThermoFisher). The reaction was stopped by addition of 0.5 M H2SO4, and the absorbance was read at 450-650 nm.
# collagen = assay: Collagen-agarose pulldown assay with IL-2 immunoblot; assay type: binding; details: for binding to collagen-agarose beads (pulldown): 18-22 hours at 4° C.
# Method: To test binding to collagen, a pulldown assay using agarose cross-linked to collagen (Sigma) was performed. IL-2 fusion proteins were incubated with collagen-agarose or control agarose beads for 18-22 hours at 4° C. with gentle rotation in 1% BSA/PBS-0.05% Tween 20. After washing, proteins bound to the beads were eluted by resuspending beads in SDS sample buffer (Life Technologies). Bound proteins were then separated by SDS-PAGE on 4-12% BisTris gradient gel, followed by immunoblotting with goat anti-mouse IL-2 polyclonal antibody (AF-402-NA; R&D systems). Donkey anti-goat HRP-conjugated antibody was used for detection (Jackson Immuno Research, West Grove, PA), and the blot was developed using the SuperSignal West Femto Maximum sensitivity detection reagent (ThermoFisher) following the manufacturer's recommendations.
molecule,measurement,setting,value
B1,fusion protein binding to heparin,[1],mimicked the Construct CC binding profile
B2,fusion protein binding to heparin,[1],bound heparin in a dose-dependent manner and with higher affinity than Construct B
B3,EC50,"[1]; acidic pH, read-out: heparin binding EC50",~10 nM
same,fusion protein binding to heparin,[1],bound heparin in a dose-dependent manner and with higher affinity than Construct B
same,pH preference of heparin binding,[1]; pH 6 vs pH 7.5,preferentially bound heparin at acidic pH
B4,fusion protein binding to fibronectin,fibronectin; acidic pH (pH 6),No significant binding
same,fusion protein binding to fibronectin,fibronectin; pH 7.5 (neutral),No significant binding
same,"heparin binding EC50 value, fold higher than Construct CC",[1],greater than 100 fold
same,fusion protein binding to heparin,[1],much weaker
B5,fusion protein binding to fibronectin,fibronectin; acidic pH (pH 6),dose-dependent binding
same,fusion protein binding to fibronectin,fibronectin; pH 7.5 (neutral),no binding
B6,binding to collagen-agarose beads (pulldown),collagen,specifically bound
same,"fraction bound, fold higher than the fraction of bound Construct B",collagen; blot quantitation,2.5 fold
B7,binding to collagen-agarose beads (pulldown),collagen,specifically bound
